Consider six molecules from paper PMC13638050 (PLOS Biology, 2026).

In experiment [1] the target is H1 stem (recombinant HA stem construct #4900 designed based on H1N1 A/Brisbane/59/2007 HA) (influenza A virus H1N1 …, biotin on the BirA biotinylation site (BirA kit)). As to the kind of experiment: BLI. The following applies: both partners purified.
Experiment [2] has as its target T1, influenza B/Lee/1940 (B/Lee40) HA (influenza B virus B/Lee/1940, biotin on the BirA biotinylation site (BirA kit)).
T1 construct: source: Sf9 (baculovirus), purified from the supernatant (Ni Sepharose excel, SEC)
T1 chain: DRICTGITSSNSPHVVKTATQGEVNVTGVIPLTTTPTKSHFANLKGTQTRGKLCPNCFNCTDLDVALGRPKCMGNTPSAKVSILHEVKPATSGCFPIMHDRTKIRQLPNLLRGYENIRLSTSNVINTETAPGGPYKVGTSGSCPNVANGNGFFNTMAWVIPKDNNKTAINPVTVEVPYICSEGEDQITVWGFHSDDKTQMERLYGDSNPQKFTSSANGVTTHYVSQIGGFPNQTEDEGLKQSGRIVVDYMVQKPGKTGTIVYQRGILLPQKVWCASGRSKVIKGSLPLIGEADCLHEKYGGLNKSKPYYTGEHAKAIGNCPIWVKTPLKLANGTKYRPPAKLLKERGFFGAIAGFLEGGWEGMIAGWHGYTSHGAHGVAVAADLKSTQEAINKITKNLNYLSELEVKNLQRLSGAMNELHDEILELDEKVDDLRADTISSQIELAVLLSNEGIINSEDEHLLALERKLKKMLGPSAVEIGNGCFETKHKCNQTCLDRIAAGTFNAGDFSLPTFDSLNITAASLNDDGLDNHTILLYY
As to the kind of experiment: BLI. The following applies: both partners purified.

B1: germline CR9114 Fab (inferred germline of CR9114) (Fab, V domains shown)
VH: QVQLVQSGAEVKKPGSSVKVSCKASGGTFSSYAISWVRQAPGQGLEWMGGIIPIFGTANYAQKFQGRVTITADKSTSTAYMELSSLRSEDTAVYYCARHGNYYYYYGMDVWGQGTTVTVS
VL: SYVLTQPPAVSGTPGQRVTISCSGSDSNIGRRSVNWYQQFPGTAPKLLIYSNDQRPSVVPDRFSGSKSGTSASLAISGLQSEDEAEYYCAAWDDSLKGAVFGGGTQLTVL
As a reminder, the Kd is a measure of binding affinity in units of concentration. Consider B1, for which the dissociation constant (Kd) in experiment [1] is 185 nM.

B2: somatic CR9114 Fab VH S52G (Fab, V domains shown)
VH: QVQLVQSGAEVKKPGSSVKVSCKSSGGTSNNYAISWVRQAPGQGLDWMGGIGPIFGSTAYAQKFQGRVTISADIFSNTAYMELNSLTSEDTAVYFCARHGNYYYYSGMDVWGQGTTVTVSS
VL: SYVLTQPPAVSGTPGQRVTISCSGSDSNIGRRSVNWYQQFPGTAPKLLIYSNDQRPSVVPDRFSGSKSGTSASLAISGLQSEDEAEYYCAAWDDSLKGAVFGGGTQLTVL
Take B2: the binding result in experiment [2] was “no binding”.

B3: somatic CR9114 Fab VH S24F (Fab, V domains shown)
VH: QVQLVQSGAEVKKPGSSVKVSCKFSGGTSNNYAISWVRQAPGQGLDWMGGISPIFGSTAYAQKFQGRVTISADIFSNTAYMELNSLTSEDTAVYFCARHGNYYYYSGMDVWGQGTTVTVSS
VL: SYVLTQPPAVSGTPGQRVTISCSGSDSNIGRRSVNWYQQFPGTAPKLLIYSNDQRPSVVPDRFSGSKSGTSASLAISGLQSEDEAEYYCAAWDDSLKGAVFGGGTQLTVL
On to B3, for which the binding result in experiment [2] is reported as “no binding”.

B4: somatic CR9114 Fab VH S24L (Fab, V domains shown)
VH: QVQLVQSGAEVKKPGSSVKVSCKLSGGTSNNYAISWVRQAPGQGLDWMGGISPIFGSTAYAQKFQGRVTISADIFSNTAYMELNSLTSEDTAVYFCARHGNYYYYSGMDVWGQGTTVTVSS
VL: SYVLTQPPAVSGTPGQRVTISCSGSDSNIGRRSVNWYQQFPGTAPKLLIYSNDQRPSVVPDRFSGSKSGTSASLAISGLQSEDEAEYYCAAWDDSLKGAVFGGGTQLTVL
Regarding B4, in experiment [2], the binding result was “no binding”.

B5: somatic CR9114 Fab VH S52V (Fab, V domains shown)
VH: QVQLVQSGAEVKKPGSSVKVSCKSSGGTSNNYAISWVRQAPGQGLDWMGGIVPIFGSTAYAQKFQGRVTISADIFSNTAYMELNSLTSEDTAVYFCARHGNYYYYSGMDVWGQGTTVTVSS
VL: SYVLTQPPAVSGTPGQRVTISCSGSDSNIGRRSVNWYQQFPGTAPKLLIYSNDQRPSVVPDRFSGSKSGTSASLAISGLQSEDEAEYYCAAWDDSLKGAVFGGGTQLTVL
B5: the binding result in experiment [2] was “no binding”.

B6: somatic CR9114 Fab VH I73W (Fab, V domains shown)
VH: QVQLVQSGAEVKKPGSSVKVSCKSSGGTSNNYAISWVRQAPGQGLDWMGGISPIFGSTAYAQKFQGRVTISADWFSNTAYMELNSLTSEDTAVYFCARHGNYYYYSGMDVWGQGTTVTVSS
VL: SYVLTQPPAVSGTPGQRVTISCSGSDSNIGRRSVNWYQQFPGTAPKLLIYSNDQRPSVVPDRFSGSKSGTSASLAISGLQSEDEAEYYCAAWDDSLKGAVFGGGTQLTVL
For the molecule B6, the binding result in experiment [2] was “no binding”.
